# Laboratory results reported in IntAct's records for PubMed 22246185.
# B1: Apoptotic protease-activating factor 1 (Homo sapiens), O14727 (parent)
# chain: MDAKARNCLLQHREALEKDIKTSYIMDHMISDGFLTISEEEKVRNEPTQQQRAAMLIKMILKKDNDSYVSFYNALLHEGYKDLAALLHDGIPVVSSSSGKDSVSGITSYVRTVLCEGGVPQRPVVFVTRKKLVNAIQQKLSKLKGEPGWVTIHGMAGCGKSVLAAEAVRDHSLLEGCFPGGVHWVSVGKQDKSGLLMKLQNLCTRLDQDESFSQRLPLNIEEAKDRLRILMLRKHPRSLLILDDVWDSWVLKAFDSQCQILLTTRDKSVTDSVMGPKYVVPVESSLGKEKGLEILSLFVNMKKADLPEQAHSIIKECKGSPLVVSLIGALLRDFPNRWEYYLKQLQNKQFKRIRKSSSYDYEALDEAMSISVEMLREDIKDYYTDLSILQKDVKVPTKVLCILWDMETEEVEDILQEFVNKSLLFCDRNGKSFRYYLHDLQVDFLTEKNCSQLQDLHKKIITQFQRYHQPHTLSPDQEDCMYWYNFLAYHMASAKMHKELCALMFSLDWIKAKTELVGPAHLIHEFVEYRHILDEKDCAVSENFQEFLSLNGHLLGRQPFPNIVQLGLCEPETSEVYQQAKLQAKQEVDNGMLYLEWINKKNITNLSRLVVRPHTDAVYHACFSEDGQRIASCGADKTLQVFKAETGEKLLEIKAHEDEVLCCAFSTDDRFIATCSVDKKVKIWNSMTGELVHTYDEHSEQVNCCHFTNSSHHLLLATGSSDCFLKLWDLNQKECRNTMFGHTNSVNHCRFSPDDKLLASCSADGTLKLWDATSANERKSINVKQFFLNLEDPQEDMEVIVKCCSWSADGARIMVAAKNKIFLFDIHTSGLLGEIHTGHHSTIQYCDFSPQNHLAVVALSQYCVELWNTDSRSKVADCRGHLSWVHGVMFSPDGSSFLTSSDDQTIRLWETKKVCKNSAVMLKQEVDVVFQENEVMVLAVDHIRRLQLINGRTGQIDYLTEAQVSCCCLSPHLQYIAFGDENGAIEILELVNNRIFQSRFQHKKTVWHIQFTADEKTLISSSDDAEIQVWNWQLDKCIFLRGHQETVKDFRLLKNSRLLSWSFDGTVKVWNIITGNKEKDFVCHQGTVLSCDISHDATKFSSTSADKTAKIWSFDLLLPLHELRGHNGCVRCSAFSVDSTLLATGDDNGEIRIWNVSNGELLHLCAPLSEEGAATHGGWVTDLCFSPDGKMLISAGGYIKWWNVVTGESSQTFYTNGTNLKKIHVSPDFKTYVTVDNLGILYILQTLE
# Variants of: B1
# Details: with 1433e_human YWHAE
row,Variant,effect of a mutation on the interaction
1,S268A,decreasing interaction

# Variants of: B1
# Details: with 1433e_human YWHAE
# Remark: another data set of the same source
row,Variant,effect of a mutation on the interaction
1,S357A,decreasing interaction
